Measured values reported in patent US20190184015A1, “IRRADIATION TREATMENT OF NEUROLOGICAL SENSATIONS BY PHOTOABLATION” (European Molecular Biology Laboratory, priority 2016, published 2019).
“Also recorded” adds a separate entry of the source.

Columns and labels:
TrkB positive neurons = assay: Diphtheria toxin mediated ablation of TrkB+ sensory neurons in TrkBCreERT2::AviliDTR mice; assay type: in vivo, mouse; settings: systemic injection; DRG sections
primary keratinocytes = assay: In-vitro photo-ablation of primary keratinocytes (propidium iodide staining); assay type: cell-based, mouse; settings: wild type keratinocytes; near infra-red light; 24 hours after
Experimental: 1 μM IL31^SNAP and 3 μM BG-IR700 were coupled for 1 hour at 37° C. The coupling reaction was applied for 10 minutes at 37° C. on primary wild type and IL31RA^−/− keratinocytes. Cells were then exposed to near infra-red light (680 nm) at 40 J/cm^2 for 2 minutes. 24 hours after light exposure cell death was assessed by Propidium iodide (PI) staining (Invitrogen #P3566) and cells were imaged with an epifluorescent microscope.

[1] = system: HEK293T cells expressing TrkB/p75; assay: BDNF^SNAP-IR700 photoablation of HEK293T cells (propidium iodide); assay type: cell-based; settings: HEK293T cells expressing TrkB/p75; 24 hours after brief illumination
Description: In initial experiments BDNF^SNAP-IR700 was applied to HEK293T cells expressing TrkB/p75 and cell death assayed following near infrared illumination.

TrkB positive afferents = assay: Innervation of skin and DRG neuron counts after photoablation; assay type: in vivo, mouse; settings: 7 days after photoablation (13 days post-SNI)
Description: Prior to photoablation, TrkB positive lanceolate endings were detected around hair follicles (FIG. 9a) and innervating Meissner corpuscles in the plantar surface of the paw. […] It was further investigated whether loss of TrkB^CreERT2 neurons was also evident at the level of the cell soma by analyzing the number of TrkB^CreERT2 positive neurons in the DRG.

[2] = system: Calcipotriol model of atopic dermatitis; assay: Calcipotriol model of atopic dermatitis; settings: prevention: injection and near IR illumination 3 days prior to Calcipotriol
IL31 Receptor A (IL31RA) = assay: Binding studies in primary keratinocyte cultures with BG-Surface549 labelled ligand; set-up: species or system mouse
Description: The inventors produced recombinant IL31 with a C-terminal fusion of SNAP (IL31^SNAP) in E. Coli. […] To determine whether IL31^SNAP was functional the inventors first performed binding studies in primary keratinocyte cultures. IL31^SNAP was labelled in vitro with BG-Surface549 and applied to keratinocytes from wildtype or IL31 Receptor A (IL31RA) knockout mice (IL31RA^−/−). […] The inventors further examined IL31^SNAP labelling in vivo by injecting IL31^SNAP-Surface549 intradermally into the back skin of wild type and IL31RA^−/− mice. […] Finally, the inventors determined whether IL31^SNAP was active by quantifying scratching behavior in mice upon intradermal injection. […] Thus the IL31^SNAP retains the functional properties of native IL31.
Primary keratinocytes were isolated from 1-3 day-old wild type and IL31RA^−/− mice as previously described (25). Briefly, newborn mouse skin was removed and incubated flat in cold and freshly thawed trypsin overnight, at 4° C., with the dermis side down. The next day, epidermis was peeled off, triturated and keratinocytes were cultured in serum free media (Invitrogen #10744-019) on Collagen I (Sigma #3867)-coated dishes (Ibidi #81151). All experiments were performed on 48-72 hours cultured cells.
Cells were incubated with the coupling reaction for […] at 37° C., then washed 3 times in CIB; and imaged using confocal microscope.

[3] = system: wild type and IL31RA^−/− mice; assay: Scratching behavior upon intradermal injection of the ligand; assay type: in vivo, mouse; settings: 5 μM
[4] = system: phosphorylated Akt, pMAPK and pSTAT3; assay: Immunoblot of IL31 downstream signaling in injected skin; assay type: in vivo, mouse; settings: skin harvested 1 hour after subcutaneous injection, 5 μM
Description: A conceptual problem of using IL31^SNAP therapeutically is that it in itself evokes itch. The inventors therefore sought to engineer IL31^SNAP to obtain a ligand that still binds to IL31 receptor complex but no longer promotes signaling. […] The K138A mutation denotes the murine IL31 mutations. The corresponding mutation in the human IL31 protein is at position K134 in the human IL31 (SEQ ID NO: 1). The inventors generated a recombinant IL31^K138A-SNAP fusion protein, labelled it with BG-Surface549 and applied it to keratinocytes. […] Importantly, such signal was not present in IL31RA^−/− keratinocytes (FIG. 2b). The inventors further assessed cellular signaling pathways activated by IL31^SNAP and […] in the skin by examining levels of phosphorylated Akt, pMAPK and pSTAT3 which have all been previously implicated in IL31 downstream signaling (14, 21, 22). […]
To assess the coupling reaction, 10 and 20 pmol IL31^SNAP was coupled with 30 and 60 pmol BG549 respectively for 1 hour at 37° C. […] The bands corresponding to the binding of IL31^SNAP with BG549 were visualized by gel fluorescence. […] Protein lysate was quantified by Bradford assay. […] Bands were visualized using the ECL detection system (Amersham #RPN2106); band density was calculated using ImageJ and the levels of phosphorylated proteins were normalized to the total counterpart.

fluorescent signal in keratinocytes (IL31 Receptor A (IL31RA); IL31RA^−/− keratinocytes)	fluorescent signal in keratinocytes (IL31 Receptor A (IL31RA); wildtype keratinocytes)	Molecule	scratching behavior evoked by the ligand ([3]; IL31RA^−/− mice)	scratching behavior evoked by the ligand ([3]; wildtype mice)	phosphorylation of Akt, MAPK and STAT3 in skin [4]	further results
–	–	diphtheria toxin	–	–	–	ablation of TrkBCreERT2::AviliDTR and TrkB mRNA positive neurons (TrkB positive neurons): ~90%; expression of other markers (TrkB positive neurons): no change; reduction in the number of NF200 positive neurons (TrkB positive neurons): ~40%
–	–	BG-PEG11-IRDye®700DX [IR700]	–	–	–	cell death after illumination (primary keratinocytes): not evident; cell death after near infrared illumination [1]: not evident; innervation of hairy and glabrous skin (TrkB positive afferents): no apparent reduction in innervation; development of atopic dermatitis-like indicators [2]: ineffective at blocking the progression of the condition
not present	strong fluorescent signal internalized	IL31^SNAP: recombinant IL31 with a C-terminal fusion of SNAP, produced in E. Coli (protein, left off: small tags and cut ends, recombinant IL31 with a C-terminal fusion of SNAP, produced in E. Coli) TCSLSFGAPISKEDLRTTIDLLKQESQDLYNNYSIKQASGMSADESIQLPCFSLDREALTNISVIIAHLEKVKVLSENTVDTSWVIRWLTNISCFNPLNLNISVPGNTDESYDCKVFVLTVLKQFSNCMAELQAKDNTTC	did not evoke scratching	evoked robust scratching; also recorded: induced robust scratching	increased phosphorylation in each pathway	–
–	–	IL31: native recombinant IL31 (Peprotech) (protein) TCSLSFGAPISKEDLRTTIDLLKQESQDLYNNYSIKQASGMSADESIQLPCFSLDREALTNISVIIAHLEKVKVLSENTVDTSWVIRWLTNISCFNPLNLNISVPGNTDESYDCKVFVLTVLKQFSNCMAELQAKDNTTC	did not evoke scratching	–	–	–
not present	Pronounced fluorescence	IL31^K138A-SNAP: recombinant fusion protein of murine IL31 point mutant K138A with SNAP (protein, left off: small tags and cut ends) TCSLSFGAPISKEDLRTTIDLLKQESQDLYNNYSIKQASGMSADESIQLPCFSLDREALTNISVIIAHLEKVKVLSENTVDTSWVIRWLTNISCFNPLNLNISVPGNTDESYDCAVFVLTVLKQFSNCMAELQAKDNTTC	–	did not evoke any scratching above baseline levels	increase was absent	–
